Consider 21 sequences from the DeepSol protein solubility set.

The nature of the series: soluble on expression in E. coli; label from the status in PepcDB or PDB records.
As for “GPGSMWFNHRIRQRGLTPVLVNTLQKRLTCSLTRICLCDCKDASGREGVSSSTSGSVPSRMTSQNPPPRPPPTTPAATPGGVQYNTRRESEAVAIEQRRQQQQRATDAQRRGEEPLPEQSESEMARWWPEENQNWSGRMFASPLDKNKKKFDGMFVPEMKEVHGPDKPLELSYAGDNFFLNPDFHMADEVFDETRRFVPPPSFDPAVDEIDDEGFVDGQVMFDIQKAVDEDRRRLEAFGNPLLVEDQVDYLLQPQREGQENIQQRQEFNGFVHWGLLHGAHMIIEENQDYKKAHEFVNRYMRDIDLFQKWLEHPKVRAHIQKKFGVDMHAKFDKLMALVMAMYARSKIQVYEDDPAGALKSLTACMSFINEGADLKKERHRKAIGAVLAARGMVYCKLKSYDRAEDDLTRALRFVNQKRCATLFQLRAEAREALGRIEEARLDEERAAEIWENAEVIAPGMSGKPYKFVL”, the “soluble on expression in E. coli” value is “not soluble”.
With “MNLTNYHSHTLYCDGRAGMEDFIRFAISRGFTSYGISSHAPLPFPTHWTMEWDRMDDYLDEFTRMKEKYASEIELAVGLEIDYLNEDSNPSVRRFQELPLDYRIGSVHLLYNDRDEVVDIDVCAEVFRDIVDQHFGGDLDRVIHLYYDRLLRMVELGGFDILGHADKMHHNAACYRPGLLDESWYDALIHDYFSAVAAKGYIVEINTKALHHLNTFFPNERYFPLLKELGVRVQVNSDSHYPERINSGRPEALAALQKAGFETVTEWHGGKWIEMPL”, the “soluble on expression in E. coli” value is on record as “not soluble”.
The same measure for “MEYRLFGQVTRALMDASQAPADDIATRIDALDWNRKVWSALATDCALPENQLPMELRASIISLSLWVGRHSSAVMRKEEDFEPLIEINRMIMQGLAGRADAA”: “not soluble”.
“AVVASLKPVGFIASAIADGVTETEVLLPDGASEHDYSLRPSDVKRLQNADLVVWVGPEMEAFMQKPVSKLPGAKQVTIAQLEDVKPLLMKSIHGDDDDHDHAEKSDEDHHHGDFNMHLWLSPEIARATAVAIHGKLVELMPQSRAKLDANLKDFEAQLASTETQVGNELAPLKGKGYFVFHDAYGYFEKQFGLTPLGHFTVNPEIQPGAQRLHEIRTQLVEQKATCVFAEPQFRPAVVESVARGTSVRMGTLDPLGTNIKLGKTSYSEFLSQLANQYASCLKGD”: the “soluble on expression in E. coli” value was “soluble”.
For “MPRSLANAPIMILNGPNLNLLGQRQPEIYGSDTLADVEALCVKAAAAHGGTVDFRQSNHEGELVDWIHEARLNHCGIVINPAAYSHTSVAILDALNTCDGLPVVEVHISNIHQREPFRHHSYVSQRADGVVAGCGVQGYVFGVERIAALAGAGSARA”, the “soluble on expression in E. coli” value is given as “soluble”.
The result for “MGSDKIHHHHHHMTYELSTDREFDLIAIGRACIDLNAVEYNRPMEETMTFSKYVGGSPANIVIGSSKLGLKAGFIGKIADDQHGRFIESYMRGVGVDTSNLVVDQEGHKTGLAFTEIKSPEECSILMYRQDVADLYLSPEEVNEAYIRRSKLLLVSGTALSKSPSREAVLKAIRLAKRNDVKVVFELDYRPYSWETPEETAVYYSLVAEQSDIVIGTREEFDVLENRTEKGDNDETIRYLFKHSPELIVIKHGVEGSFAYTKAGEAYRGYAYKTKVLKTFGAGDSYASAFLYALISGKGIETALKYGSASASIVVSKHSSSDAMPSVEEIEALIEKDETITIA” reads “not soluble”; that for “MLRQIGEFYHQGEKDDTSRVWMTCWHHGGRILASCGDDKAVRVWSLVGEPDSKMRLECRTTLDDSHTRAVRSVAFSNDGKCLVSASFDASVVVYQQEDGEFAEVNKLEGHESEVKCAVFSKSDEFLATCSRDKSVWFWQQDEDEDFSVSSILQPHTQDVKQVAWHPTEDLLVSCSYDSSIRFYRFDGEDWVTQQKIDGCHVGTVWSIAFDTEGHRLVTVGEDHCIQLFVRENIGSKSADQDTWKSVARYDVENTRWPLYSVAWNSTNDVIATGGGDCKIRLFKISSTPESPVIEHLGVVGRHELDVNHVAWNPNPKFSNLLTSASDDGTIRLWELEI”, “not soluble”.
The same measure for “NFLLTQPHSVSESPGKTVTISCTRSSGSIANNYVHWYQQRPGSSPTTVIFEDDHRPSGVPDRFSGSVDTSSNSASLTISGLKTEDEADYYCQSYDHNNQVFGGGTKLTVLG”: “soluble”; for “MGSDKIHHHHHHAADHVKGDGKLTSKKISVADYNEIKVDGVIDFNYEQSDDPSTVEVTVDQNLHPYVNIEVKDRVLTIAFKGAKVDHFTKFIVKTNSKWLAAAKVSGNANFMVNSPLTGDETVIKANANSLVQLKETVTVGKLDLNVSGSANMVVNHLEADKIECDIDGSGSITIKKGNAKEGDYSIVSSGDIHAFGLAVPQLSCKVTGNGLAEVHATDNLKANVVGKGNIRYKGPTAVQQRIIGKGTVEEVKE”: “not soluble”; for “MTEWTGEERYQRIEDVDTEYFKTLKQQVDQSKFRQQFHIQPETGLLNDPNGLIFYKGKYYVSHQWFPLGAVHGLKYWYNYTSDDLINFKAEGPILNPDTKYDSHGVYSGSAFEYNGHLYYMYTGNHRDNHWQRHASQMIARLKEDGSVEKFPKPVISQQPEGYTSHFRDPKVFKYDEKYYAIIGAQNNDQQGRLLLYNTEDIINWHYLGEINTELDDFGYMWECPDYFNVDNQDVILICPQGIEPKGDQFKNIYQSGYILGKFDIEKLTYEHENFVELDNGFDFYAPQTFLDEKGRRVLIGWMGLPEIEYPTDNEGWAHCLTTPRVLNVENGQLKQRPYPALEKLRHNKETALGYANKFTRKLHPYEGKQYELIIDILDNDATEVYFELRTSKTSSTLIAYNKRENKITLDRSDSGLLPTNVEGTTRSTILDTPLKQLQIFVDTSSIEIFCNDGERVLTSRIFPTEDALGIKTSTESGQVYLQFTKYDLKDEHK”: “not soluble”.
The same measure for “MNPIEIIDKFYPQDTEQRHILLIHSLSVAQKALKIVDAHPNLPINRSFVREAALLHDIGIFMTDAPTIQCFGEHPYIAHGYLGADLLRKEGFERHALVCERHTGAGLTLEEIIERQLPVPHREMVPVTLEEQIICFADKFFSKTHLDEEKTVEKARKSIAKYGEEGLNRFDGWCSLFL”: “not soluble”; for “MNKLSRTDEENRQTEFSSSPLSDSVHSCLGFNRKKERKRRTSGDIEQTDKRKRTEERPSDKITFASNVFDNLARVTAERDNPEKLSKYKNIPGVGTRENIDEGISDINQPSSKSSGVKSKYVEVMSLFQKSIQKFSIMNLDYMYTFDWNHYSKKNIQYVVFTKVCQSHAPGHFVEMLKEDCSCRDCGSADLAVKVRLTVPLDLSDIPIPCSEDIQIHVSFLADDLLERHISSNVNRSSNRDDLDFSRRTCEKMYDLYQKMMRGQSSRMYTEWFDKCKIFVKNFLFSKSLHLYHGNVIRRKIEESQTLNKRRCFIFAQIFDLE”: “not soluble”; for “MPPDEIEIEPVRQSSDKMLYCEAESPPTVEKVKPARENSETDLEIEDDEKFFTTGQKELYLEACKLMGVVPVSYFIRNMEESYVNLNHHGLGPRGTKAIAIALVSNMAVTKLELEDNCIMEEGVLSLVEMLQENYYLQEMNISNNHLGLEGARIISDFFERNSSSIWSLELSGNDFKEDSAALLCQALSTNYQIKKLDLSHNQFSDVGGEHLGQMLAINVGLTSLDLSWNNFHTRGAVALCNGLRGNVTLTKLDLSMNGFGNEVALALGEVLRLNRCLVYLDIGGNDIGNEGASKISKGLESNESLRVLKLFLNPINMDGAILLILAIKRNPKSRMEELDISNVLVSEQFMKTLDGVYAVHPQLDVVFKAVQGLSPKKTIFLLTNPMKLIQSYADQHKITIVDFFKSLNPTGTMKMSVDEFQKVMIEQNKVPLNQYQVREVIKKLDEKTGMVNFSFLNTMKP”: “soluble”.
As to “MSLHVGAGKSFGTAEANENERRWNDDKIDRKNQDPTNHYDRTRMKLNFEIGPDGKIHPLGYQEKSLEVRLQERLDELGWKPFKADSKIQPNCCAKFVFGGNHDRTLEMAFGNQSVNLEKGADNSHLHRCEEIENWAKDVYDWCVQIYGQENIVGFQVHLDESSPHIHALVVPVGIRPKSGRKCVMWSAKFGKDRYEYGQILKEMHTFLYEDVGSKYGLERGDSIEGRNVHHLHKRDYIRKLTKEAKQAEKAVKGLQSMMRNLESKIFSYRLQLEETEKELASGKITLDRYEAQKADIQKLIAEYQTKLEDKTDKLHAKEQELERLTADATKARSVVQPFRNHKVDFMPPQITEKVPLFGTDKWVERQNQRIAKQFTEIVRKIESLYRNDAARQVEAAQRNVLADYGELYQLRRENKSLSDTNESLESELNTLLDQLAIPSARNLIFAVADALIGGQPVPVSSGGGGSTSDLPWDGRRSDEEEEAYRRRCLMFAIVTVCKQQTKSRREGHHHHHH”, the “soluble on expression in E. coli” value was “soluble”.
As to “MTQVYDGFVHLGFSNRNGRTISHKKYQEGNSRVSADNSDANGVPYYFLINMGGGFVEGEQYQVTIDVNKDAHALVTTQTPTYVYKCEKGQLTQQNTSITLEENSYLEYMADEVIPYLKSRYFQTSRIDMDKSAHLIYSDGVTAGWSHEDLPFQYHYFRNLTQIYQDNELVYSDQTLLEPEKQDMFKLGYFEGWRNYNSLVMVSPNIDEAFVKALQKHLEGLNLESDFAISSLDISGLVLRILGKTAEDNRRIIYSCADYFRQEIHGLTPLNLRKNDMRRLEHHHHHH”, the “soluble on expression in E. coli” value was “soluble”.
The same measure for “MGHHHHHHSHMASPSKAVIVPGNGGGDVTTHGWYGWVKKELEKIPGFQCLAKNMPDPITARESIWLPFMETELHCDEKTIIIGHSSGAIAAMRYAETHRVYAIVLVSAYTSDLGDENERASGYFTRPWQWEKIKANCPYIVQFGSTDDPFLPWKEQQEVADRLETKLHKFTDCGHFQNTEFHELITVVKSLLKVPA”: “not soluble”.
On to “MTERKLVAERNFEVNGYDIDAMGIVSNIVYIRWFEDLRTDFINQYMPYSDMMNQQISPILMNTEAEYKTPITIHDKPVGRCYLVKASKLRWEFEFEIESEDAVHCIGKQSGTFFDLQKKKVTRLPEVFQTILSLEHHHHHH”, for which the “soluble on expression in E. coli” value was “not soluble”.
The same measure for “MGHHHHHHGGHMSLNSTSSPTIAVTAATGKLGQLVVSSLLERGVPADHIVAIVRNPAKAQGLFAPGVQIRQADYNSPEGWDRALAGVQRLLLISSSDLNDRADQHRTVIEAASAAGVELLAYTSLLKADTARMSLAADHQATEKLLTESGVPFVLLRNGWYLENYDLAQALQTGSVLGAAGTGRISAASRKDLAEAAAAALTRDGQAGKVYELAGDEAFSLSELAAELSKQSGKDVQYRNFAPEDYQRTLEGFGLPAPVAQMLVSSDEGVARGELELPNSDLRELIGRPSTSLKEAVASQLAEGGS”: “soluble”.
With “MGSDKIHHHHHHMTSKINKIVNGPIPDSFLFDESKRLDSLKFDGTNLEVLDQLLLPHEFKYIPVEGVSDAFAVIKSMQVRGAPLIAVVGSLGLLLEIQKASELDSESIIQKINFLISSRPTAVDLRNSLNGLKPILESQDYSDVVKLEKCRSYLLNVYTDEKLQNRILVWNAYQELLSAFPDKEKLTVMTICNTGSLATISWGTALGVIRALHSENRLKLVYVLETRPYNQGIRLTSIELLHGEVPFKLITDSMAAWAMKNHQVDCVLTGADNVARNGDTANKIGTYMLAVLCKHHNINFYPVVPFTTINKNIATGEEIKIEERPSAEMLRVNGVLIGNSECPVWNPAFDVTPAHLITKILTDFGNWPPEMLEQQIPK”, the “soluble on expression in E. coli” value was “not soluble”.
Consider “MNDIEAAFHQYFEIIDADTPELLKTVFDLRYRILCVHNVIPGFDTNNYPNELESDQYDSHSIHFLLRHRPTNTFIGTTRLILPNPLDPMDKFPTELNTHFYPGFVLDSSSRKHTTEVSRFAILSDFFKRKGERNMLSQSTEIGCKAQERRRFPHPMLGLVVGLIQLCARNNIYHLISAMEPALNKLLGFYSLQMNPIGPPADYHGLRTPYYLYLPDLLDRMYQDHRSLWELITDHGRIWPMNLACIHQKTLKTAYTDNVYISE”, for which the “soluble on expression in E. coli” value is given as “not soluble”.
In the case of “MKNIKDEWVQIALDLTSGLSSKDRFERLLSTIRNALKCDASALLLFKNQYFSPLATNGLDGDVIGRRFAISQHPRLEAIARAGDIVRFPSDSDLPDPYDGLIANEERQLQVHSCIGLPLLVNERLIGAVTIDAFDPTQFDSFTNKELRIISALAATSLHTALLMERLENQS”, the “soluble on expression in E. coli” value is given as “not soluble”.
